This assay has as its target T1, recombinant mouse N-cadherin-Fc chimera (N-cadherin extracellular domain-Fc fusion protein) (mouse) (UniProt P15116).
T1 sequence: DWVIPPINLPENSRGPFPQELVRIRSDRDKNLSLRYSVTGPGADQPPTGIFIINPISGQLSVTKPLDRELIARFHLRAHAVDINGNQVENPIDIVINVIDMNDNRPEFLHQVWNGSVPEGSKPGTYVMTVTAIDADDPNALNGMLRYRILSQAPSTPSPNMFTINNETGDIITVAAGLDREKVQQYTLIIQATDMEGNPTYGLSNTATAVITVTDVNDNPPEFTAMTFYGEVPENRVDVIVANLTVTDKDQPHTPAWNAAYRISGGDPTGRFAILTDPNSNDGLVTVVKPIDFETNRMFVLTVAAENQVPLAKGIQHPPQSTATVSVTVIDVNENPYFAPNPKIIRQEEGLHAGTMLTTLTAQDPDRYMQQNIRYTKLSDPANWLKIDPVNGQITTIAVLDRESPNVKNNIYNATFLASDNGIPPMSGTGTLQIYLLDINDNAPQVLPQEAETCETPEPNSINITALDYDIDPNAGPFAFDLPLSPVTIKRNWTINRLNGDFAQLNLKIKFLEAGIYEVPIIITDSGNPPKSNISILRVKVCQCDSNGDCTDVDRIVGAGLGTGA

For the substance “cell surface N-cadherin of ESC/iPSC-derived neural progenitor cells (from UniProt P15116 160-906) (natural protein)”, the Nanog-GFP negative cells by flow cytometry after plating dissociated iPSC-derived neurospheres on N-cad-Fc for 48 h (30% of cells on gelatin expressed Nanog) was above 97%.

The values are drawn from article PMC4526632.
